The test system of this data set is Sprague-Dawley rats. In words: nebulized aerosol inhalation in rats, inflammatory potential and toxicity. It is filed as in vivo, rat. Here is the method: This example evaluated and compared the in vivo inflammatory potential among three forms of C35S monothiol Trx (oxidized ORP-100, reduced ORP-100, and reduced ORP100S) formulated in the sucrose/EDTA formulation composition described in PCT WO 2006/090127 and delivered to normal rats as nebulized aerosols at doses of […] and 40 mg/kg.
All three forms of ORP-100 were lyophilized following reduction with DTT and formulated in sucrose buffer (9% sucrose 1.17 mM EDTA pH 5.2). All test articles were evaluated at low (10 mg/kg) and high (40 mg/kg) target delivered doses. The test articles were administered to Charles River Sprague-Dawley rats via inhalation as an aerosol. The aerosol of each of the test articles was produced by a commercially available vibrating mesh nebulizer whose output was attached to a nose-only exposure system.
Target doses were achieved via modulation of the aerosol exposure time while maintaining the aerosol concentration constant. Animals in Low Dose groups received a single dose of test article during a 20 minute exposure to achieve a target delivered dose of 10 mg/kg and deposited dose of 1 mg/kg. Animals in High Dose groups received a single dose of test article during a 75 minute exposure to achieve a target delivered dose of 40 mg/kg and target deposited dose of 4 mg/kg.
Animals in each study group were evaluated for potential toxicity by measuring various parameters including: clinical signs, body weight, clinical pathology (BALF cell counts, LDH and albumin measurements), lung tissue cytokines, lung weights, gross pathology, and microscopic pathology of respiratory target tissues. Additionally, three animals in each Low Dose group had lung tissues collected for immunohistochemistry (Alizèe Pathology, Thurmont, M D). Three (3) animals in each Low Dose group were to be euthanized at 1 hour and 4 hours post exposure for blood and tissue collections. Four (4) animals in each High Dose group were euthanized at 4 and 20 hours post exposure for blood and tissue collections.

B1: ORP100S: thioredoxin with monothiol active site, Cys35 and non-active Cys 62, 69 and 73 substituted with serine (SEQ ID NO:29) (protein)
chain: MVKQIESKTAFQEALDAAGDKLVVVDFSATWCGPSKMIKPFFHSLSEKYSNVIFLEVDVDDSQDVASESEVKSMPTFQFFKKGQKVGEFSGANKEKLEATINELV
modifications: synthetic peptide motif
In the case of B1, under “low and high dose aerosol”, the “differences in BALF LDH, albumin, cell counts, differential counts and lung tissue cytokines vs. oxidized ORP-100 control groups” value is reported as “unremarkable”. Under “sucrose/EDTA formulation, nebulized aerosol”, the “neutrophil influx (sucrose/EDTA formulation effect)” value is recorded as “abrogated neutrophil influx almost completely”. In addition, the “adverse test article effects (clinical observations, BALF chemistry, cell count, differential, lung cytokines, macroscopic and microscopic findings)” value (target delivered doses 10 mg/kg and 40 mg/kg, aerosol, 1, 4 or 20 hours post exposure) is on record as “no evidence of adverse test article effects”.

For the origin of these results see patent US20230071765A1, “COMPOSITIONS HAVING THIOREDOXIN ACTIVITY AND RELATED METHODS” (ORPRO THERAPEUTICS, INC., priority 2020, published 2023).
